Results published in patent US20260226185A1 (MAYO FOUNDATION FOR MEDICAL EDUCATION AND RESEARCH, published 2026).

Molecular target: T1, human B-cell activating factor receptor (BAFF-R) polypeptide (human, UniProt Q96RJ3 1-184)
T1 sequence: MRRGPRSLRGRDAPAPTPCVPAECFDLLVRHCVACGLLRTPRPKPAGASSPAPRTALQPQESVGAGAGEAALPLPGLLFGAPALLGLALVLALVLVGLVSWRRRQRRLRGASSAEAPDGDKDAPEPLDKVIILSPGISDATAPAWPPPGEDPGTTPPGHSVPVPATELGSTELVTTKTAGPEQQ
Assay: flow cytometry on BAFF-R expressing 293FT cells vs 293FT cells, R-PE goat anti-mouse IgG detection
Experimental: The lead clone was identified and advanced to purification. […] Following two washes in FACS (PBS with 2% bovine serum albumin), cells were incubated with R-PE conjugated goat anti-mouse IgG for 30 minutes at 4° C. Cells were then washed as before and resuspended in 400 μL FACS for analysis on an Attune flow cytometer (Thermo Fisher). […] Anti-BAFF-R monoclonal antibody development was monitored by R-phycoerythrin conjugated goat anti-mouse IgG (BD Bioscience, San Jose, California).

binding result: binds
B1: anti-BAFF-R monoclonal antibody C21 (Clone #1) (antibody, V domains shown)
VH: DVQLVESGGGLVQPGGSRKLSCAASGFTFSSFGMHWVRQAPEKGLEWVAYINSGSSTINYADTVKGRFTISRDNPKNTLFLQMTSLRSEDTAMYYCTIYYYAMDYWGQGTSVTVSS
VL: DIVMSQSPSSLTVSVGEKVSMSCKSSQTLLYSGNQKNYLAWYQQKPGQSPKLLIYWASTRESGVPDRFAGSGSGTDFTLTISSVKAEDLAVYYCQQYYIYPPWTFGGGTKLEIK
notes: Mouse hybridoma antibody, tested as crude supernatant and as purified mAb and detected with R-PE goat anti-mouse IgG; the mouse constant regions and the isotype are not; also called hybridoma clone 21; mAb C21
